Assay: soluble on expression in E. coli; label from the status in PepcDB or PDB records

Row | Sequence | soluble on expression in E. coli
1 | MGSDKIHHHHHHQVAYFMSFAGNETFIRELVKQFGSDEVLIVYKTNVKENVLQLQQGHIIKHAIEFKKFQVTSFVKGIKLARVTLFDNYYPELSAINKTKKDYFIQMWHANGAIKAFGWEDPSTYHRSVEDQQRFQRVYDSFDQIVVGSEKMADVFQRSWHVASDKIDRIGYPRTDKYFEESWIEKARKKIQTKLPELTQKRVILYAPTYRKDVSFSLPDDWRKIKVPQDAVLIVRLHPHLANVERQIVDASPDRVIMVDHFISTQELLCVADTLITDYSSIAFDFSLLDNARSVIFFTYDLEEFERTVGIQASFKAAFLNQMVNTVEQLNDAILFGNSDKNVIHKLNQQWNTLNDGHSSARLIKQVKERCTDE | not soluble
2 | MEAWIAEAKALLAALVAVPSVSAEGRALREGAEKVAEVLEGLGLRAELHEGYGPPVVFAEGGEGERTLLFYNHYDVQPPDPLELWDTDPFVLAEREGAWYARGAHDYKGELVVRVVALRRFQEKHGFLPRVKFVVEGEEEVGSPHLEAYVADKRDLLKAEAILWEAGGVDAKGRPYLYAGLKGIVALELRVRTAAFDLHSSYGAVVENPIYRLSRALASLRDEEGRVLIPGFYAKVRPLTPLEMEVLAQIPDESEALREAFGVRDFLGGARNLDFNQRLYAEPCVNFNGFHAGYGGPGSKTVLPAEARAKLDFRLVPDQDPEEVPELLRRHLEAQGFHDVEVVVLEKGERPARSDLAHPFVALARRALEEAFGERPVLYPNMAGSGPMHPFLHHLKAPAVGLGVGYPGSRVHSPNEHIRVRDFERGVQALLRLLELFFLGR | soluble
3 | MSFKGFKVVMLILLSTQSYASKLASSIVCDSTIENPCIVQDSKTQFSPVIRYREVASIADVYGGNITGINKFHLSGSEQPSEKGWEAIAESISRKMGAETKKVIVLDLRQESHGYLNGRAITLVSAYNWINLGKSNSQSTLDQENWLAGLRSRKIVNGVLTVPQYVAKQYSQGKSMVVSTVKNEEYYVYKKGFDYYRIFISDHRAPLDSEVDALVALIKNNPEDTWYHVHCRGGKGRTTTVFAMFDMLKNADKVSFEEIIARQASIPPFYNLMVTNREIPELTPYYEQRLQFLIHFYEFARQSLMGYSGTWSEWKKLNI | not soluble
4 | MKKIAIFGSRHKSEQGASIKALILKLEEAGTPLYIERKFLSFLKQDLDFHPAICGVIDTLPEHIDYVICMGGDGTFLRTAHQIGVSQIPVLGVNTGRLGFLTDVDCHEASELITRLLDGDFTIETRSLLEVTEDNGSSPSYALNEAAILKRETGSMIRVNACLNDDYLAAYDADGLVVATPSGSTAYSLSGNGPIIMPACRNFVLTPIAPHSLNMRPLVVPDDTVIRLEVDSRSRNYLLVLDGRTRTLPCDTSILLKRAPHTLRMIRLRPHSFAETLRRKLMWGAAVRLEHHHHHH | soluble
5 | MGSDKIHHHHHHMRLAFFGDVHGNFEALKAVLEDMENKGVDEVFCLGDLVGYGPDPEAVVQTIMEKNIKTIMGNYDDAVGYSKESCGCSYAPGRETEVGDISLKWSIENTSEKTREFLRNLPKKLSFEVEGVRFLLVHGSPLNELLEYVKPNTPPDRLKKIVESVEENVVVNGHTHLPMVKWVMGKLVLNPGSAGRPKDGDPRASYMIVDVENGTVSFEIVRVRYDVKTTVEKIARNGLPVELATVLALGQTFDMGPGKVTFTLGR | not soluble
6 | MDIKRYCPVTDSELPADHVYFKFRSEIEAAEAYLGLAISEGIKVRETREILDIIDTVYNSLSDPESKLNDFQEKRLNFTEEDWYDIKEKANNGNRWSLYMFLARSAVDSAVYWSYRMKETEEFKEIVKEEMISKLLKAGYVILRESLGEVRL | soluble
7 | SLTLPQTERQYLSGHGCDDMVEWDFFCTDGRNSGKWTKIGVPSCWELQGFGTYQYGITFYGKAFPEGIADEKGMYKYEFEVPEKFRGQQVNLVFEASMTDTEVKVNGRKVGSKHQGAFYRFSYNVTDFLKYGKKNLLEVTVSKESENASVNLAERRADYWNFGGIFRPVFLEVKPAINLRHIAIDAQMDGSFRANCYTNLSNDGMSIRAQILDNKGKKLTETTVPVKAGGDWTSLQLKVSDPALWTAETPNLYKAQFSLLDKDGKVLHNETETFGFRTIEVRESDGLYVNGVRIMVRGVNRHSFRPESGRTLSKAKNIEDVLLMKDMNMNSVRLSHYPADPEFLEACDSLGLYVMDELGGWHGKYDTPTGVRLIKGMIERDVNHPSIIWWSNGNEKGWNTELDGEFHKYDPQKRPVIHPQGNFSGFETMHYRSYGESQNYMRLPEIFMPTEFLHGLYDGGHGAGLYDYWEMMRKHPRCIGGFLWVLADEGVKRVDMDGFIDNQGNFGADGIVGPHHEKEGSFYTIKQLWSPVQIMNTSVDKQFDGKFSVENRYDYLNLNTCRFLWKQVKFPTATDASNTTAQVLKQGEVQGSDVAAHSAGVLDIKTTILPDADALFLTAIDRYGHELWRWTFPVNKLNQANEVLSPLSNEG | soluble
8 | MARKRIITPEKKELIRNLISEYNITSAKDLQEALKDLLGDTIQNMLEAELDEHLGYEKYESTEEAKSNYRNGYTSKTLKSSVGQVEIDIPRDRNAEFEPKIVPRYKRDISEIENKIIAMYARGMSTREINEQIQEIYGFEVSAEMVSKITDKILPEIEEWQKRPLGEVIR | soluble
9 | MAGPVFPWRDGNQFELLIDGPAFFPRMLLAIMRAEFQVDLELYLVEAGACAEAVVDALEQAARRGVRVRCLFDDYGSLAFNSALRQRLLDAGVYLRWYNRLRWKRGLRNLYRDHRKLLLVDERWAVVGGTGVTDEFWTPGEATSEWHEVMVQMQGPVVSDWQLLFDRQWQANNRRTAWRPAEGFGLPRLPKVPAQGQGMGRVAYADARQHQDILHALVRALNSGQKRVWLATPYFLPTWSVRRSLRRAASKGLDVRLLLTGPRTDHPSVRYAGHRYYPRLLRAGVRIFEYQPCFLHLKMAVVDDWVSVGSCNFDHWNLRFNLEANIEALDPPLTAAVVASFERDFAQSEEVDLAHWHARPWWRRVKQRIWGWLDRLVVNFLDRRD | not soluble
10 | MKEIDWANLSFGYMKTDYNVRINFRNGAWGELEVSSDEHLNLHMAATCLHYGQEAFEGLKAFRGKDGKVRIFRLEENAARLQSTCQGILMAELPTERFKEAILKVVKLNERFIPPYETGASLYIRPLLIGTSAQVGVHPAEEYMFVVFVTPVGPYFKGGFSTNPYVIIREFDRAAPHGTGIYKVGGNYAASLRANKKAHDLGYSCEFYLDAKEKKYIDECGAANFFGIKDNTYITPKSSSILPSITNKSLMQLAEDMGIKVERRPIPEEELETFEEAGACGTAAVISPIQRIDDLENGKSYVISKDGKPGPICTKLYNKLRGIQYGDEPDTHGWVTIVE | not soluble
11 | STNAEAVTVTNKQIIFPDYVTGFPKESDLKITTTTIDLRLPEGSTSVLVKNLYLSCDPYMRICMGKPDPLSSSLVPPYKTGVPIIGLGVSKVIDSGHPDYKKGDLLWGLVGWEEYSVITLTTYSHFKIEHTDVPLSYYTGLLGMPGMTAYAGFYEVCSPKKGETVFVSAASGAVGQLVGQFAKLMGCYVVGSAGSKEKVYLLKTKFGFDDAFNYKEEKDFSAALKRYFPEGIDIYFENVGGKMLDAVLINMKLHGRVAVCGMISQYNLVDPEGVHNLPTILYKRIQLQGFGVCDFYDKYPKFLDFVLPYIREGKITYVEDIAEGFESGPSALLGLFEGKNVGKQLFVVARE | soluble
12 | TLAGRIVLVKIEPLSFSEFCKLKGHEVPYEKVAYARDILSPMLMEYIEKGGFPELVWENDPYKIRSYVRSIVIDRIVTRDIPQEFGIR | not soluble
13 | MTNAKPENALAAIGIARKELDADRYILISSDLVYTPSNDPKAEDSRTEPITDEGRIFLTAESLMNQERDAIFRTGFIIGLCSVNLYTNVLNMVRSGMRLSLSKSTIRNFIRNADLSSFIMRSIERNISGVYNVASDASTAYDFAKRLCDMAGLKCTLEDSGEDLGNYTMDTSRSLKTFGMRPMSVFEGYTISGSFDLR | not soluble
14 | SHLVVESFPSYRDVTLFEGKRVSFYKRAQILVADTWSVLEGKGDGCFKDISSITMFADYRLPQVLAHLGALKYSDDLLKKLLKGEMLSYGDRQEVEIRGCSLWCVELIRDCLLELIEQKGEKPNGEINSILLDYYLWDYAHDHREDMKGIPFHRIRCIYY | soluble
15 | MRKINTNKNDSQIYSRGFIMRNIRPSQLGQYIRRALRLHFIPVVLVAAPSVMANTNQETEQLETLVVTASALKVETPAQETPKALSIVTQEEIVARAPQKLDEALRYTSGVTAQPYGADNDTDWLKVRGFDAATYQDGSRLFRDGYYTWLIEPYALERIEVLKGPASILYGEAPPGGVVNAVQKKPTDIPQGEVGLQVGNDALRTLTLDISDYANQDGSVRYRLVALMKENDGQLNGTQTSRNYLAPSLSIDISEQTRLTLLASFLEDSGVPTNPFFPAAGTLIDSNFGHIDPSTNLGQPDYDKYERRQVSLGYLFEHDLNDVWALSQTFNYGDNDLYLRSSYAFSNDDPSKDTLTQGIVFRDGSTESLSLDNKAVAKWDSARVENTLLMGLELQRHQTQGVELDNYSFGTINPFNPNYGNFTPIDESSAADRTITKEQASLYAQYQIKLDQQWIGLIGGRMDWVDTENESQKNMQRKSRSDAEFSFNAGLMYLASNGVSPYLSYSQSFDVLSTIDSAKGELYKPLKGEQTEVGVKYQPEFYDGYINLAWFDITQQNALVTNPTTFVATQTGEMTAQGIEVESVGYVTDSLKLTASYTFTDAKTDETGGKGTQQAGLIPKHQASAWLDYDAAQLGLQGWTFGSGVRYIGESKDNPRSSDRTVPSVTLVDLMAGYEITENWQVQLNINNLFDREFVSGCDYWCYYGQSRSAVLSANYRW | not soluble
16 | SLSAKDKANVKAIWGKILPKSDEIGEQALSRMLVVYPQTKAYFSHWASVAPGSAPVKKHGITIMNQIDDCVGHMDDLFGFLTKLSELHATKLRVDPTNFKILAHNLIVVIAAYFPAEFTPEIHLSVDKFLQQLALALAEKYR | soluble
17 | MGSDKIHHHHHHMSEIASTKARKRCAVYCRVSSDERLDQEFNSIDAQKEAGHAYVASQRSEGWISVADDYDDPGFSGGNTDRPGLKRLMADIERGQIDIVVVYKIDRLTRSLADFSKMVEVFERHEVSFVSVTQQFNTTTSMGRLMLNVLLSFAQFEREVTGERIRDKIAAAKRKGMWMGGVPPLGYDVDNRLLVINETEAAVVRRIFEEMLTIGSPTQIAVNLTADGITNKAWTTQEGQTRNGTRIDKKYLHNLLRNRIYLGELSHKGNWYPGAHLPIIDRELWDKVHAVLARDGHARSVETKIRSRTDALLRGLLYAPSGERMYPTYSRKNGRKYHYYVSKSESRFGAPGKSY | not soluble
18 | MSLQSSIYRIRHLAKPAYREEFKGDIECSTAAYKEVLEDTSTDSTSKLPLEAKFGKMSIIKLVLLLIISTIIYANDKNISNLHITSDSLIIDRTKQKAAYLGNVIVYFDNAILRTKELYIFYKTIDEKQTIDHIVVPTKLTVERKINNELLLADSAKYFCDNKQLILLGNVILQRDDNVLKTNKLIYYVDIIKK | not soluble
19 | MSIIEDNKISFVIPTINEEKTIGSVIDGIHENFPNAEIILVDTNSTDKTKEIAKSKGATVIEEPRKGYGRAYQTGIPAAKGDIIVCMDGDGTYPTDIVKPLIEILILDKVDFISCDRITFRTSTNYTTLHYVGNMVLNLTIRILFKVRMVDSQSGMWIFRSELYKKMKNLGYGMSFSQNIKIEAVRHGVFIEIPIRYGVRITKPKLKTWHDGFHNLFALFIKRVSELEHHHHHH | soluble
20 | MAGDRKRGFIRPDEDYALIEPQRWGLPDYGDSKEKKAKQTAFNYDPSWVPNFDEPEEEQALELTEEQIELIKQGAYQEGLYQGQEAGFKQGYDKGKEEGLQAGHAEGLELGKAEGVSAGQEFIQQQVEVFMNLANQFAQPLELMNAQVEKQLVDMVLCLVKEVVHVEVQTNPQIILDTVKQSVEALPISGHPITLHLNPEDVAIIRSAYGEEDLDCRNWTLVSEPSLNRGDVQIEAGESSINYRMEERIKSVLHSFCGANRHQEGE | not soluble
